From patent publication US20020098183A1 (published 2002)

Target: T1, human L-selectin (on human leukocytes) (human, UniProt P14151 39-372)
T1 construct: whole, on cells; also called LECAM-1; Lam-1
T1 sequence (looked up): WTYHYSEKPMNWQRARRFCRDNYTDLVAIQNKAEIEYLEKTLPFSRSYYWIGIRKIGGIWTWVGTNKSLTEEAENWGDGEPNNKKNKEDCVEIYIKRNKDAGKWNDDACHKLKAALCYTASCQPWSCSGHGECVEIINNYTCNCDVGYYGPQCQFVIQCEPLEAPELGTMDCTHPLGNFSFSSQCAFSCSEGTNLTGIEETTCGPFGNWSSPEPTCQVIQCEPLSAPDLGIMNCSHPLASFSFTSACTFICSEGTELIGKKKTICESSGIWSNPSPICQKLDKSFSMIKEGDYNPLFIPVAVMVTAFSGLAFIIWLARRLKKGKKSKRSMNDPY
Experiment: binding to leukocytes (e.g. FACS analysis)

B1: HuDreg 55 humanized anti-L-selectin antibody (antibody, human IgG4, kappa, V domains shown)
VH: EVQLVESGGGLVQPGGSLRLSCAASGFTFSTYAMSWVRQAPGKGLEWVASISTGGSTYYPDSVKGRFTISRDNAKNTLYLQMNSLRAEDTAVYYCARDYDGYFDYWGQGTLVTVSS
VL: DIQMTQSPSSLSASVGDRVTITCKASQSVDYDGDSYMNWYQQKPGKAPKLLIYAASNLESGIPSRFSGSGSGTDFTLTISSLQPEDFATYYCQQSNEDPWTFGQGTKVEIKR
binding result: binds
